Measured values as given in paper PMC8557155 (Annals of Nuclear Medicine, 2021).
Entries after “also recorded” stand apart in the source; their conditions may differ.

Experiment: Safety and tolerability (TEAEs, NCI CTCAE v4.0, DLT)
Assay type: in vivo, human (Japanese patients)
Procedure: Safety was evaluated based on adverse events, laboratory tests, vital signs, physical examination, arterial oxygen saturation (SpO2), 12-lead electrocardiogram (ECG), body weight, and Eastern Cooperative Oncology Group (ECOG) performance status. Toxicity was evaluated according to the NCI CTCAE criteria version 4.0 14). Blood count and liver and kidney biochemistry examinations were performed just prior to the treatment and 5 days, 2, 4, 6, and 8 weeks after the first administration (Course 1). In addition, the examinations were performed the second, third, fourth administration (Courses 2, 3, 4), and as per routine clinical follow-up thereafter.
Course 2 treatment and subsequent courses were initiated for subjects who completed the dose-limiting toxicity (DLT) observation period (up to Day 56 of Course 1) without experiencing DLT and who met the eligibility criteria. […] The study treatment was considered tolerable when the number of subjects who experienced DLT was zero or one per six subjects. The appropriateness of DLT, as assessed by the investigator or sub-investigator, was confirmed by the clinical trial medical expert. All adverse events and serious adverse events, reported spontaneously or non-spontaneously, were collected during the study.

[1] = TEAE by severity, n = 6, CTCAE v4.0, 4 × 7.4 GBq + amino acid solution + octreotide LAR

Compound: C[C@@H](O)[C@H](NC(=O)[C@@H]1CSSC[C@H](NC(=O)[C@@H](Cc2ccccc2)NC(=O)CN2CCN(CC(=O)O)CCN(CC(=O)O)CCN(CC(=O)O)CC2)C(=O)N[C@@H](Cc2ccc(O)cc2)C(=O)N[C@H](Cc2c[nH]c3ccccc23)C(=O)N[C@@H](CCCCN)C(=O)N[C@@H]([C@@H](C)O)C(=O)N1)C(=O)O [177Lu-DOTATATE, ^177Lu-DOTA^0-Tyr^3-octreotate, metal not drawn]
- Dose-limiting toxicities (DLT) (DLT observation period up to Day 56 of Course 1, n = 6): no dose-limiting toxicities; also recorded: no DLT
- ALT increased, Grade 1 [1]: 1 (16.7) n (%)
- ALT increased, Grade 2 [1]: 0 n (%)
- ALT increased, Grade 3 [1]: 0 n (%)
- ALT increased, Grade 4 [1]: 0 n (%)
- AST increased, Grade 1 [1]: 1 (16.7) n (%)
- AST increased, Grade 2 [1]: 0 n (%)
- AST increased, Grade 3 [1]: 0 n (%)
- AST increased, Grade 4 [1]: 0 n (%)
- Abdominal distension, Grade 1 [1]: 3 (50.0) n (%)
- Abdominal distension, Grade 2 [1]: 0 n (%)
- Abdominal distension, Grade 3 [1]: 0 n (%)
- Abdominal distension, Grade 4 [1]: 0 n (%)
- Abdominal pain, Grade 1 [1]: 1 (16.7) n (%)
- Abdominal pain, Grade 2 [1]: 0 n (%)
- Abdominal pain, Grade 3 [1]: 0 n (%)
- Abdominal pain, Grade 4 [1]: 0 n (%)
- All treatment emergent adverse events (TEAEs), Grade 1 [1]: 0 n (%)
- All treatment emergent adverse events (TEAEs), Grade 2 [1]: 4 (66.7) n (%)
- All treatment emergent adverse events (TEAEs), Grade 3 [1]: 2 (33.3) n (%)
- All treatment emergent adverse events (TEAEs), Grade 4 [1]: 0 n (%)
- Alopecia, Grade 1 [1]: 3 (50.0) n (%)
- Alopecia, Grade 2 [1]: 0 n (%)
- Alopecia, Grade 3 [1]: 0 n (%)
- Alopecia, Grade 4 [1]: 0 n (%)
- Blood and lymphatic system disorders (SOC), Grade 1 [1]: 0 n (%)
- Blood and lymphatic system disorders (SOC), Grade 2 [1]: 1 (16.7) n (%)
- Blood and lymphatic system disorders (SOC), Grade 3 [1]: 2 (33.3) n (%)
- Blood and lymphatic system disorders (SOC), Grade 4 [1]: 0 n (%)
- CPK increased, Grade 1 [1]: 0 n (%)
- CPK increased, Grade 2 [1]: 1 (16.7) n (%)
- CPK increased, Grade 3 [1]: 0 n (%)
- CPK increased, Grade 4 [1]: 0 n (%)
- Chest discomfort, Grade 1 [1]: 1 (16.7) n (%)
- Chest discomfort, Grade 2 [1]: 0 n (%)
- Chest discomfort, Grade 3 [1]: 0 n (%)
- Chest discomfort, Grade 4 [1]: 0 n (%)
- Chest pain, Grade 1 [1]: 1 (16.7) n (%)
- Chest pain, Grade 2 [1]: 0 n (%)
- Chest pain, Grade 3 [1]: 0 n (%)
- Chest pain, Grade 4 [1]: 0 n (%)
- Cholesterol increased, Grade 1 [1]: 0 n (%)
- Cholesterol increased, Grade 2 [1]: 1 (16.7) n (%)
- Cholesterol increased, Grade 3 [1]: 0 n (%)
- Cholesterol increased, Grade 4 [1]: 0 n (%)
- Constipation, Grade 1 [1]: 2 (33.3) n (%)
- Constipation, Grade 2 [1]: 0 n (%)
- Constipation, Grade 3 [1]: 0 n (%)
- Constipation, Grade 4 [1]: 0 n (%)
- Creatinine increased, Grade 1 [1]: 1 (16.7) n (%)
- Creatinine increased, Grade 2 [1]: 0 n (%)
- Creatinine increased, Grade 3 [1]: 0 n (%)
- Creatinine increased, Grade 4 [1]: 0 n (%)
- Decreased appetite, Grade 1 [1]: 3 (50.0) n (%)
- Decreased appetite, Grade 2 [1]: 1 (16.7) n (%)
- Decreased appetite, Grade 3 [1]: 0 n (%)
- Decreased appetite, Grade 4 [1]: 0 n (%)
- Diarrhea, Grade 1 [1]: 3 (50.0) n (%)
- Diarrhea, Grade 2 [1]: 2 (33.3) n (%)
- Diarrhea, Grade 3 [1]: 0 n (%)
- Diarrhea, Grade 4 [1]: 0 n (%)
- Dizziness, Grade 1 [1]: 1 (16.7) n (%)
- Dizziness, Grade 2 [1]: 0 n (%)
- Dizziness, Grade 3 [1]: 0 n (%)
- Dizziness, Grade 4 [1]: 0 n (%)
- Dysgeusia, Grade 1 [1]: 0 n (%)
- Dysgeusia, Grade 2 [1]: 1 (16.7) n (%)
- Dysgeusia, Grade 3 [1]: 0 n (%)
- Dysgeusia, Grade 4 [1]: 0 n (%)
- Dyshidrotic eczema, Grade 1 [1]: 0 n (%)
- Dyshidrotic eczema, Grade 2 [1]: 1 (16.7) n (%)
- Dyshidrotic eczema, Grade 3 [1]: 0 n (%)
- Dyshidrotic eczema, Grade 4 [1]: 0 n (%)
- Gastrointestinal disorders (SOC), Grade 1 [1]: 4 (66.7) n (%)
- Gastrointestinal disorders (SOC), Grade 2 [1]: 2 (33.3) n (%)
- Gastrointestinal disorders (SOC), Grade 3 [1]: 0 n (%)
- Gastrointestinal disorders (SOC), Grade 4 [1]: 0 n (%)
- General disorders and administration site conditions (SOC), Grade 1 [1]: 5 (83.3) n (%)
- General disorders and administration site conditions (SOC), Grade 2 [1]: 0 n (%)
- General disorders and administration site conditions (SOC), Grade 3 [1]: 0 n (%)
- General disorders and administration site conditions (SOC), Grade 4 [1]: 0 n (%)
- Gingivitis, Grade 1 [1]: 1 (16.7) n (%)
- Gingivitis, Grade 2 [1]: 0 n (%)
- Gingivitis, Grade 3 [1]: 0 n (%)
- Gingivitis, Grade 4 [1]: 0 n (%)
- Headache, Grade 1 [1]: 1 (16.7) n (%)
- Headache, Grade 2 [1]: 0 n (%)
- Headache, Grade 3 [1]: 0 n (%)
- Headache, Grade 4 [1]: 0 n (%)
- Hyperuricemia, Grade 1 [1]: 1 (16.7) n (%)
- Hyperuricemia, Grade 2 [1]: 0 n (%)
- Hyperuricemia, Grade 3 [1]: 0 n (%)
- Hyperuricemia, Grade 4 [1]: 0 n (%)
- Hypocalcemia, Grade 1 [1]: 0 n (%)
- Hypocalcemia, Grade 2 [1]: 1 (16.7) n (%)
- Hypocalcemia, Grade 3 [1]: 0 n (%)
- Hypocalcemia, Grade 4 [1]: 0 n (%)
- Immune system disorders (SOC), Grade 1 [1]: 1 (16.7) n (%)
- Immune system disorders (SOC), Grade 2 [1]: 0 n (%)
- Immune system disorders (SOC), Grade 3 [1]: 0 n (%)
- Immune system disorders (SOC), Grade 4 [1]: 0 n (%)
- Infections and infestations (SOC), Grade 1 [1]: 2 (33.3) n (%)
- Infections and infestations (SOC), Grade 2 [1]: 1 (16.7) n (%)
- Infections and infestations (SOC), Grade 3 [1]: 0 n (%)
- Infections and infestations (SOC), Grade 4 [1]: 0 n (%)
- Investigations (SOC), Grade 1 [1]: 1 (16.7) n (%)
- Investigations (SOC), Grade 2 [1]: 4 (66.7) n (%)
- Investigations (SOC), Grade 3 [1]: 0 n (%)
- Investigations (SOC), Grade 4 [1]: 0 n (%)
- Leukopenia, Grade 1 [1]: 0 n (%)
- Leukopenia, Grade 2 [1]: 2 (33.3) n (%)
- Leukopenia, Grade 3 [1]: 0 n (%)
- Leukopenia, Grade 4 [1]: 0 n (%)
- Lymphopenia, Grade 1 [1]: 0 n (%)
- Lymphopenia, Grade 2 [1]: 1 (16.7) n (%)
- Lymphopenia, Grade 3 [1]: 2 (33.3) n (%)
- Lymphopenia, Grade 4 [1]: 0 n (%)
- Malaise, Grade 1 [1]: 4 (66.7) n (%)
- Malaise, Grade 2 [1]: 0 n (%)
- Malaise, Grade 3 [1]: 0 n (%)
- Malaise, Grade 4 [1]: 0 n (%)
- Metabolism and nutrition disorders (SOC), Grade 1 [1]: 3 (50.0) n (%)
- Metabolism and nutrition disorders (SOC), Grade 2 [1]: 2 (33.3) n (%)
- Metabolism and nutrition disorders (SOC), Grade 3 [1]: 0 n (%)
- Metabolism and nutrition disorders (SOC), Grade 4 [1]: 0 n (%)
- Musculoskeletal and connective tissue disorders (SOC), Grade 1 [1]: 1 (16.7) n (%)
- Musculoskeletal and connective tissue disorders (SOC), Grade 2 [1]: 0 n (%)
- Musculoskeletal and connective tissue disorders (SOC), Grade 3 [1]: 0 n (%)
- Musculoskeletal and connective tissue disorders (SOC), Grade 4 [1]: 0 n (%)
- Musculoskeletal pain, Grade 1 [1]: 1 (16.7) n (%)
- Musculoskeletal pain, Grade 2 [1]: 0 n (%)
- Musculoskeletal pain, Grade 3 [1]: 0 n (%)
- Musculoskeletal pain, Grade 4 [1]: 0 n (%)
- Nasopharyngitis, Grade 1 [1]: 2 (33.3) n (%)
- Nasopharyngitis, Grade 2 [1]: 0 n (%)
- Nasopharyngitis, Grade 3 [1]: 0 n (%)
- Nasopharyngitis, Grade 4 [1]: 0 n (%)
- Nausea, Grade 1 [1]: 3 (50.0) n (%)
- Nausea, Grade 2 [1]: 0 n (%)
- Nausea, Grade 3 [1]: 0 n (%)
- Nausea, Grade 4 [1]: 0 n (%)
- Nervous system disorders (SOC), Grade 1 [1]: 3 (50.0) n (%)
- Nervous system disorders (SOC), Grade 2 [1]: 1 (16.7) n (%)
- Nervous system disorders (SOC), Grade 3 [1]: 0 n (%)
- Nervous system disorders (SOC), Grade 4 [1]: 0 n (%)
- Decreased appetite, frequency (all grades) (TEAE, n = 6): 66.7%
- Diarrhea, frequency (all grades) (TEAE, n = 6): 83.3%
- Leukopenia, frequency (all grades) (TEAE, n = 6): 33.3%
- Lymphopenia, frequency (all grades) (TEAE, n = 6): 50%
- Malaise, frequency (all grades) (TEAE, n = 6): 66.7%
- Nausea, frequency (all grades) (TEAE, n = 6): 50%
- Thrombocytopenia, frequency (all grades) (TEAE, n = 6): 33.3%
- Lymphocyte, erythrocyte, and leukocyte counts (after each treatment, n = 6): gradually decreased
- Abdominal distension, frequency (all grades) (in vivo): 50%
- Alopecia, frequency (all grades) (in vivo): 50%
- Blood creatinine level increased, frequency (in vivo): 16.7%
- Severe infections (in vivo): no severe infections
- Severe lymphopenia during the follow-up period, frequency (in vivo): 16.7%
- Secondary hematological malignant diseases (n = 6): no secondary hematological malignant diseases
- Severe (grade ≥ 3) adverse events associated with non-hematological toxicities (n = 6): no severe (grade ≥ 3) adverse events
